Tests used:
[1] = system: HFD-fed Db/Db (Bks-Db) mice; experiment: HFD-fed Db/Db mouse model of advanced type II diabetes
Description: In order to investigate the effect of therapeutic anti-GAL-3 antibodies on a severe case of type II diabetes, a mouse model using High Fat Diet (HFD)-fed Db/Db mice was implemented. Four-weeks-old male Bks-Db mice (000642) obtained from Jackson lab were fed with 60% kcal HFD (Research Diet, 12492i) for eight weeks. Control animals (male C57BL6/J (000662), Jackson lab) were fed normal chow diet. […] Animals were randomized based on the body composition measured by employing EchoMRI-500™ (EchoMRI). […] Wild type animals were used as a control (Healthy) group. The animals were dosed for twelve weeks. […] The fasting blood glucose was measured as described in Example 15. Briefly, the mice were fasted for 4-6 hours in clean cages with water and no food. Blood from the tail was diluted 2.5 times before using HemoCue Glucose 201 Analyzer and cuvettes (Mercedes Scientific 110706) to measure the blood glucose level.

[2] = system: DSS-induced IBD C57BL/6J mice; experiment: DSS mouse model of chronic inflammatory bowel disease; format: in vivo; conditions: 3% DSS mice, 10 mg/kg or 1 mg/kg
Description: A mouse model of chronic inflammatory bowel disease was implemented to study the effect of Gal-3 antibodies. […] Mice were allowed to rest for one week before initiating the treatment.
Mice were randomized into the four treatment groups: no dextran sulfate sodium salt (DSS), 3% DSS in water+PBS, 3% DSS+mTB001 (10 mg/kg), 3% DSS+mTB001 (1 mg/kg). DSS water mixture was given for five consecutive days followed by seven days of normal water for a total of three DSS cycles and two normal water cycles. Body weight, stool consistency, gross bleeding score, and Hemoccult score (Fisher, SK-61130) were monitored daily. At necropsy, blood, colon, jejunum, ileum, duodenum, and spleen were preserved and flash frozen. Plasma Inflammatory cytokines were measured using Multi-spot Assay Systems (MSD) Proinflammatory Panel 1 (mouse) kit (MSD, K15048D). RT-qPCR was performed on frozen colon samples. Briefly, the colon tissue was disrupted using Qiazol lysis buffer (Qiagen, 79306) and the Qiagen Tissue Lyser II (Qiagen, 85300). RNA was extracted using RNeasy mini kit (Qiagen, 74104). cDNA was synthesized with iScript Reverse Transcription Supermix (BioRad, 1708841) at BioRad C1000 touch thermal cycler (BioRad, 1851138). […]

B1: TB001: Gal3-targeted Gal3-INSR blocking anti-Gal3 antibody; IMT001-4 used with human IgG4 isotype control (antibody, V domains shown)
VH: QVQLVQSGSELKKPGASVKVSCKASGYTFTNYGMNWVRQAPGQGLKWMGWINTNTGEPTYVEEFTGRFVFSLETSVSTAYLQISSLKAEDTAVYFCAPYDNFFAYWGQGTTVTVSS
VL: DIVLTQSPLSLPVTPGEPASISCRSSKSLLYKDGKTYLNWFLQKPGQSPQLLIYLMSTHASGVPDRFSGSGSGTDFTLKISRVEAEDVGVYYCQQLVDYPLTFGGGTKLEIK
Question: Which results are given for B1?
Answer: change in levels of fasting blood glucose ([1]; compared to PBS-treated groups): lack of change; survival ([1]; dosed once weekly for twelve weeks): significantly prolonged survival; DSS-induced reduction in the colon length [2]: restored; DSS-induced inflammation by circulating levels of IFN-gamma ([2]; plasma): reduced DSS-induced inflammation

Source: patent publication US20230094463A1, “ANTIBODIES THAT DISRUPT THE INTERACTION OF GAL3 AND INSULIN RECEPTOR OR INTEGRINS AND METHODS OF USE THEREOF” (TrueBinding, Inc., priority 2019, published 2023)
